Target: human γ-tubulin ring complex (γ-TuRC), the reconstituted complex without NEDD1 (human) (UniProt P23258)
Assay: cryo-EM structure; NEDD1-containing rec-γ-TuRC; free particles in micrographs of Aher et al. (2024), processed anew; consensus map 4.7 Å; model from AlphaFold 3 predictions fitted to the map and refined, side chains trimmed to β-carbons

In the case of “neural precursor cell expressed, developmentally downregulated 1 (NEDD1), full length, in the reconstituted human γ-TuRC (from UniProt Q8NHV4 1-660) (natural protein)”, the stoichiometry N is reported as 4.
